Experimental data taken from US20160289280A1, “Fusion protein of recombinant ganoderma immunoregulatory protein and human serum albumin, preparation method thereof, and application thereof” (priority 2013, published 2016).
Where “and” joins values, the source holds several entries; their conditions need not be identical. Equal values may be shown once. Marks after values point to notes of the source that are not given here.

What was measured:
[1] = tested on: mouse melanoma cells B16-F10; test: mouse B16-F10 transplanted tumor model, in situ tumor weight; assay type: in vivo; settings: tail vein once a day, 28 days
Protocol: In vivo experiment: firstly, establishing a mouse tumor mould, wherein mouse melanoma cells B16-F10 is cultured with the DMEM comprising 10% fetal calf serum at 37° C. in a CO2 incubation device; slowly subcutaneously injecting 200 μl B16-F10 cell suspension (comprising 1×10^7 cells) with a 1 ml injector at mouse dorsal-ventral skin, so as to establish a mouse transplanted tumor mould.

mouse spleen cells = test: promotion of mouse spleen cell proliferation, WST-1 method; assay type: cell-based; settings: for OD450, promotion of cell proliferation: 24 h, x ± s, n = 9
Protocol: Testing effects of the fusion proteins on mouse spleen cell proliferation by a WST-1 method, which illustrates strength of biological activity, wherein according to the present invention, BALB/c female mice are used, whose weight is controlled at 20-22 g; executing the mice by stretching necks thereof, taking out spleens under a sterile condition, and putting into a plate with 5 ml DMEM comprising 10% calf serum; cracking the spleens with tweezers, filtering tissue suspension with gauze for removing tissue blocks, and preparing cell suspension of spleen cells; adding 100 μl the tissue suspension into 900 μl 2% glacial acetic acid for counting with a microscope; adjusting a cell concentration to 5×10^6/ml with DMEM comprising 2% calf serum; respectively preparing the fusion proteins and the rLZ-8 with same molar concentration gradient, wherein there are 3 gradient concentrations, each concentration occupies 9 wells with 100 μl per well; adding tissue suspension with a concentration of 5×10^6/ml with 100 μl per well; shaking for evenly mixing, and then putting into a 37° C., 5% CO2 incubation device to incubate for 24 h; after incubation, adding WST-1 with 20 μl per well; putting into the 37° C., 5% CO2 incubation device to incubate for 3 h, then testing OD450 (with a BIO-RAD); wherein results are listed in table 1.

platelets = test: treatment of mouse thrombocytopenia caused by cyclophosphamide, platelet count; assay type: in vivo; settings: for platelets after: after cyclophosphamide, before treatment; for platelets before: baseline before cyclophosphamide
Protocol: Experimental medicine: preparing a 19.25 μg·kg^−1 and a 9.625 μg·kg^−1 dosage groups of the recombinant ganoderma immunoregulatory protein (rLZ-8) with sterile injection water, and 0.2 ml per mouse; and preparing a 19.25 μg·kg^−1 and a 9.625 μg·kg^−1 dosage groups (judging from the LZ-8) of the fusion protein rLZ-8-HSA of the recombinant ganoderma immunoregulatory protein.
Positive control medicine: thrombopoietin (THPO) from Shenyang 3SBio Inc., with a dosage of 770 μg·kg^−1/d and 0.2 ml per mouse.
Chemotherapy medicine: cyclophosphamide (Cy) from Jiangsu Hengrui Medicine Co., Ltd, whose batch number is 12112121, 200 mg/bottle; preparing into 100 mg·kg^−1, 0.2 ml per mouse with sterile injection water.
Platelet dilution: urea: 1.3 g; sodium citrate: 0.5 g; formaldehyde: 0.1 ml; adding distilled water to 100 ml for mixing, then filtering for further utilization.
Experimental method: dividing experimental animals into 5 groups, wherein each group comprises 10 mice with 5 males and 5 females; except for a normal control group (injected with normal saline having an equal volume), abdominally injecting the cyclophosphamide to the mice with a dosage of 100 mg·kg^−1, 0.2 ml per mouse per day, and lasting for three days; when a platelet quantity decreased to below 300×10^9/L, subcutaneously injecting the rLZ-8, the fusion protein rLZ-8-HAS (19.25 μg·kg^−1, 9.625 μg·kg^−1, 0.2 ml·per mouse per day) and the positive medicine (THPO 770 μg·kg^−1, 0.2 ml·per mouse per day) according to the above groups with corresponding dosages, and injecting the normal saline having the equal volume to the normal control group and a CP group; respectively sampling mouse tail vein blood 3 d, 7 d and 14 d after treatment, counting platelets with high power lens, wherein results thereof are listed in table 7.

[2] = tested on: mouse transplanted tumor S180; test: subcutaneous inhibition of mouse transplanted tumor S180; assay type: in vivo; settings: tail vein, 10 days
Protocol: In vivo experiment: experimental material: mice weighing 18-22 g from Laboratory Animal Center of Jilin University; Ehrlich ascites tumor cell strains are provided by a lab of the inventor; cytoxan (CTX) is from Jiangsu Hengrui Medicine Co., Ltd, whose batch number is 06101921; 5180 ascites tumor and soild tumor experimental groups respectively comprises a normal control group, a negative control group, a positive control group, an rLZ-8 low-dosage group (0.25 mg·kg^−1), an rLZ-8 middle-dosage group (0.5 mg·kg^−1), an rLZ-8 high-dosage group (1 mg·kg^−1), an rLZ-8-HSA low-dosage group (0.25 mg·kg^−1), an rLZ-8-HSA middle-dosage group (0.5 mg·kg^−1), and an rLZ-8-HSA high-dosage group (1 mg·kg^−1), wherein dosages of the rLZ-8-HSA groups are judged from LZ-8 dosage, wherein each group comprises 10 mice.
tumor inhibition rate (%)=(average tumor weight of control groups−average tumor weight of experimental groups)/average tumor weight of control groups×100%.

melanoma = test: in vitro inhibition effect on melanoma, WST-1 method; assay type: cell-based; settings: 24 h, x ± s, n = 9
Protocol: In vitro experiment: testing the inhibition effect of the fusion protein rLZ-8-HSA on the melanoma through a WST-1 method, preparing tissue suspension of the melanoma; adding 100 μl the tissue suspension into 900 μl 2% glacial acetic acid and counting with a microscope; adjusting a tissue concentration to 2×10^5/ml with DMEM comprising 2% calf serum; respectively preparing the fusion protein rLZ-8-HSA and the rLZ-8 with same molar concentration gradient, wherein there are 3 gradient concentrations, each concentration occupies 9 wells with 100 μl per well; adding tissue suspension with a concentration of 2×10^5/ml with 100 μl per well; shaking for evenly mixing, and then putting into a 37° C., 5% CO2 incubation device to incubate for 24 h; after incubation, adding WST-1 with 20 μl per well; putting into the 37° C., 5% CO2 incubation device to incubate for 3 h, then testing OD450 (with a BIO-RAD); wherein results are listed in table 3.

[3] = 9.625 μg·kg^−1 (LZ-8) subcutaneously per day
[4] = 19.25 μg·kg^−1 (LZ-8) subcutaneously per day
[5] = low-dosage 0.25 mg·kg^−1 (LZ-8)
[6] = middle-dosage 0.5 mg·kg^−1 (LZ-8)

B1: rLZ-8-HSA: fusion protein of ganoderma immunoregulatory protein (LZ-8) and human serum albumin, linker GGGGSS, SEQ ID NO. 1 (protein)
chain: SDTALIFRLAWDVKKLSFDYTPNWGRGNPNNFIDTVTFPKVLTDKAYTYRVAVSGRNLGVKPSYAVESDGSGKVNFLEYNSGYGIADTNTIGVFVVDPDTNNDFIIAGWNGGGGSSMKWVTFISLLFLFSSAYSRGVFRRDAHKSEVAHRFKDLGEENFKALVLIAFAGYLGGCPFEDHVKLVNEVTEFAKTCVADESAENCDKSLHTLFGDKLCTVATLRETYGEMADCCAKGEPERNECFLGHKDDNPNLPRLVRPEVDVMCTAFHDNEETFLKKYLYEIARRHPYFYAPELLFFAKRYKAAFTECCGAADKAACLLPKLDELRDEGKASSAKGRLKCASLGKFGERAFKAWAVARLSGRFPKAEFAEVSKLVTDLTKVHTECCHGDLLECADDRADLAKYICENGDSISSKLKECCEKPLLEKSHCIAEVENDEMPADLPSLAADFVESKDVCKNYAEAKDVFLGMFLYEYARRHPDYSVVLLLRLAKTYETTLEKCCAAADPHECYAKVFDEFKPLVEEPGNLIKGNCELFEGLGEYKFGNALLVRYTKKVPGVSTPTLVEVSRNLGKVGSKCCKHPEAKRMPCAEDYLSVVLNGLCVLHEKTPVSDRVTKCCTESLVNRRPCFSALEVDETYVPKEFNAETFTFHADICTLSEKERGIKKGTALVELVKHKPKATKEGLKAVMDDFAAFVEKCCKADDKETCFAEEGKKLVAASGAALGL
modifications: rLZ-8-HSA sequence
[1]; high-dosage 492 μg/kg (LZ-8)
  tumor inhibition rate: 89.51 ± 0.88 %
  tumor weight: 0.13 ± 0.05 g
[1]; low-dosage 123 μg/kg (LZ-8)
  tumor inhibition rate: 71.77 ± 0.31 %
  tumor weight: 0.35 ± 0.11 g
[1]; middle-dosage 246 μg/kg (LZ-8)
  tumor inhibition rate: 78.22 ± 0.47 %
  tumor weight: 0.27 ± 0.14 g
Mouse spleen cells; protein 5.0 × 10^−9 mol/L
  OD450, promotion of cell proliferation: 0.936 ± 0.31
Mouse spleen cells; protein 10.0 × 10^−9 mol/L
  OD450, promotion of cell proliferation: 1.680 ± 0.38
Mouse spleen cells; protein 15.0 × 10^−9 mol/L
  OD450, promotion of cell proliferation: 2.373 ± 0.35
Mouse spleen cells; same protein concentration
  promotion of spleen cell proliferation compared with rLZ-8: better than the rLZ-8
platelets; [3]
  platelets 3rd day: 624 ± 0.43* *10^9/L
  platelets 7th day: 697 ± 0.43* *10^9/L
  platelets 14th day: 929 ± 0.61** *10^9/L
platelets; 9.625 μg·kg^−1 group
  platelets after: 261 ± 0.52 *10^9/L
  platelets before: 843 ± 0.65 *10^9/L
platelets; [4]
  platelets 3rd day: 760 ± 0.38* *10^9/L
  platelets 7th day: 978 ± 0.67* *10^9/L
  platelets 14th day: 1035 ± 0.78** *10^9/L
platelets; 19.25 μg·kg^−1 group
  platelets after: 246 ± 0.36 *10^9/L
  platelets before: 852 ± 0.82 *10^9/L
platelets; rLZ-8-HSA groups, p<0.05
  platelet recovery compared with the CP group: returned to normal at the third day
[2]; high-dosage 1 mg·kg^−1 (LZ-8)
  Inhibition rate: 29.3%
  tumor weight: 0.21 ± 0.08 g
[2]; [5]
  Inhibition rate: 27.7%
  tumor weight: 0.73 ± 0.03 g
[2]; [6]
  Inhibition rate: 56.4%
  tumor weight: 0.44 ± 0.05 g
melanoma; protein 5.0 × 10^−9 mol/L
  OD450, inhibition effect on melanoma: 0.411 ± 0.31
melanoma; protein 10.0 × 10^−9 mol/L
  OD450, inhibition effect on melanoma: 0.212 ± 0.29
melanoma; protein 15.0 × 10^−9 mol/L
  OD450, inhibition effect on melanoma: 0.118 ± 0.11

B2: rLZ-8: recombinant ganoderma immunoregulatory protein which is not fused, comparator (protein, UniProt P14945 2-111, looked up)
Immunomodulatory protein Ling …: SDTALIFRLAWDVKKLSFDYTPNWGRGNPNNFIDTVTFPKVLTDKAYTYRVAVSGRNLGVKPSYAVESDGSQKVNFLEYNSGYGIADTNTIQVFVVDPDTNNDFIIAQWN
[1]; high-dosage 492 μg/kg (LZ-8)
  tumor inhibition rate: 83.04 ± 0.51 %
  tumor weight: 0.25 ± 0.04 g
[1]; low-dosage 123 μg/kg (LZ-8)
  tumor inhibition rate: 56.72 ± 0.41%
  tumor weight: 0.53 ± 0.21 g
[1]; middle-dosage 246 μg/kg (LZ-8)
  tumor inhibition rate: 64.91 ± 0.77%
  tumor weight: 0.43 ± 0.17 g
Mouse spleen cells; protein 5.0 × 10^−9 mol/L
  OD450, promotion of cell proliferation: 0.739 ± 0.23
Mouse spleen cells; protein 10.0 × 10^−9 mol/L
  OD450, promotion of cell proliferation: 1.197 ± 0.31
Mouse spleen cells; protein 15.0 × 10^−9 mol/L
  OD450, promotion of cell proliferation: 1.567 ± 0.27
platelets; [3]
  platelets 3rd day: 483 ± 0.45 *10^9/L
  platelets 7th day: 585 ± 0.78 *10^9/L
  platelets 14th day: 898 ± 0.61* *10^9/L
platelets; 9.625 μg·kg^−1 group
  platelets after: 201 ± 0.41 *10^9/L
  platelets before: 839 ± 0.40 *10^9/L
platelets; [4]
  platelets 3rd day: 501 ± 0.48 *10^9/L
  platelets 7th day: 680 ± 0.28 *10^9/L
  platelets 14th day: 1021 ± 0.31** *10^9/L
platelets; 19.25 μg·kg^−1 group
  platelets after: 226 ± 0.78 *10^9/L
  platelets before: 946 ± 0.45 *10^9/L
[2]; high-dosage 1 mg·kg^−1 (LZ-8)
  Inhibition rate: 45.5% and 43.5%
  tumor weight: 0.57 ± 0.03 g
[2]; [5]
  Inhibition rate: 16.8% and 17.8%
  tumor weight: 0.83 ± 0.03 g
[2]; [6]
  Inhibition rate: 25.7% and 26.7%
  tumor weight: 0.74 ± 0.02 g
melanoma; protein 5.0 × 10^−9 mol/L
  OD450, inhibition effect on melanoma: 0.427 ± 0.44
melanoma; protein 10.0 × 10^−9 mol/L
  OD450, inhibition effect on melanoma: 0.372 ± 0.21
melanoma; protein 15.0 × 10^−9 mol/L
  OD450, inhibition effect on melanoma: 0.302 ± 0.24
